{"source": "patent US20240109955A1", "about": "(published 2024)", "binders": {"B1": {"name": "A19-61.1 (antibody, V domains shown)", "VH": "QVQLVESGGGVVQPGRSLRLSCAASGFTFSSYAFHWVRQAPGKGLEWVAVISYDGSNQYYADSVKGRFTISRDNSKNTLYLQMNSLRADDTAVYYCARDLAIAVAGTWHYYNGMDVWGQGTTVTVSS", "VL": "DIQMTQSPSSVSASVGDRVIITCRASQGISSWLAWYQQKPGKAPKVLIYDASSLQSGVPSRFSGSGYGTDFTLTISSLQPEDSATYYCQQAKSFPITFGQGTRLEIK"}}, "target": "SARS-CoV-2 spike protein, original Wuhan strain (WT) (SARS-CoV-2, UniProt P0DTC2 14-1273)", "assay": "cell-based or functional assay"}
{"binder": "B1", "values": [{"measurement": "IC50, pseudovirus neutralization", "result": 0.172, "unit": "nM"}]}
